# B1: GpH7-B3 variant G237_02A/GpL16-k0 (antibody, human IgG1, kappa)
# heavy: not shown
# light: DIVMTQSPLSLPVTPGEPASISCQASESLVHSNRNTYLHWYLQKPGQSPQLLIYKVSNRFSGVPDRFSGSGSGTDFTLKISRVEAEDVGVYYCSQNTHVPPTFGQGTKVEIERTVAAPSVFIFPPSDEQLKSGTASVVCLLNNFYPREAKVQWKVDNALQSGNSQESVTEQDSKDSTYSLSSTLTLSKADYEKHKVYACEVTHQGLSSPVTKSFNRGEC
# notes: also called Ho Ab G237_02A
# B2: GpH7-B3 variant A327_07I/GpL16-k0 (antibody, human IgG1, kappa)
# heavy: not shown
# light: B1 light
# notes: also called Ho Ab A327_07I
# B3: GpH7-B3 variant A327_18N/GpL16-k0 (antibody, human IgG1, kappa)
# heavy: not shown
# light: B1 light
# notes: also called Ho Ab A327_18N
# B4: GpH7-B3 variant A330_01G/GpL16-k0 (antibody, human IgG1, kappa)
# heavy: not shown
# light: B1 light
# notes: also called Ho Ab A330_01G
# B5: GpH7-B3 variant A330_05P/GpL16-k0 (antibody, human IgG1, kappa)
# heavy: not shown
# light: B1 light
# notes: also called Ho Ab A330_05P
# B6: GpH7-B3 variant G237_04F/GpL16-k0 (antibody, human IgG1, kappa)
# heavy: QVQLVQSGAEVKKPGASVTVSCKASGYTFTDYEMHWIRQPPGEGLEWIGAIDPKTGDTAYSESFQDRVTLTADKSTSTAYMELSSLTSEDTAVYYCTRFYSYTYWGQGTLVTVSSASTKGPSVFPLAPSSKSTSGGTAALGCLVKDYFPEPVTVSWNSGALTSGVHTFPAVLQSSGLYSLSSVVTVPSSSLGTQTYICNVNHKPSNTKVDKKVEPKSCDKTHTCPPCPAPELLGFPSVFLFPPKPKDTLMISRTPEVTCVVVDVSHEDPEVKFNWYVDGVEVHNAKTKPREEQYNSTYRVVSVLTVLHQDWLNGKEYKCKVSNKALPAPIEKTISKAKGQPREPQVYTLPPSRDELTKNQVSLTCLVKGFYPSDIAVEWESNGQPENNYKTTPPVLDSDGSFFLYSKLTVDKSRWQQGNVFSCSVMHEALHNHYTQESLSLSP
# light: B1 light
# notes: also called Ho Ab G237_04F
# B7: GpH7-B3 variant G237_06M/GpL16-k0 (antibody, human IgG1, kappa)
# heavy: not shown
# light: B1 light
# notes: also called Ho Ab G237_06M
# B8: GpH7-B3 variant G237_08L/GpL16-k0 (antibody, human IgG1, kappa)
# heavy: not shown
# light: B1 light
# notes: also called Ho Ab G237_08L
# B9: GpH7-B3 variant G237_09D/GpL16-k0 (antibody, human IgG1, kappa)
# heavy: not shown
# light: B1 light
# notes: also called Ho Ab G237_09D
# B10: GpH7-B3 variant G237_10E/GpL16-k0 (antibody, human IgG1, kappa)
# heavy: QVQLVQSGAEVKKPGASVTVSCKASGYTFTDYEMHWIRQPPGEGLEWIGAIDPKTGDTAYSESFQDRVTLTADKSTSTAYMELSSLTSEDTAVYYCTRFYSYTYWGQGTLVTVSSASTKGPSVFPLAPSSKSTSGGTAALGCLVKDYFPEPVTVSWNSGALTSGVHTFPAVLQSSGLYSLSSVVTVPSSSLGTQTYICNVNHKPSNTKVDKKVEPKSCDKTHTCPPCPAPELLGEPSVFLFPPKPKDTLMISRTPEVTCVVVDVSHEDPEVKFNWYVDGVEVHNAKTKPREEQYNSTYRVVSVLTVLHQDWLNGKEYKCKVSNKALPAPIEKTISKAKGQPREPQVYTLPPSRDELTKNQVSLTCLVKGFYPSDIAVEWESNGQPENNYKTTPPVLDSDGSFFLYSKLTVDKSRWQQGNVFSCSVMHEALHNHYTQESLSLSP
# light: B1 light
# notes: also called Ho Ab G237_10E
# B11: GpH7-B3 variant G237_13S/GpL16-k0 (antibody, human IgG1, kappa)
# heavy: not shown
# light: B1 light
# notes: also called Ho Ab G237_13S
# B12: GpH7-B3 variant G237_15Y/GpL16-k0 (antibody, human IgG1, kappa)
# heavy: not shown
# light: B1 light
# notes: also called Ho Ab G237_15Y
# B13: GpH7-B3 variant G237_18N/GpL16-k0 (antibody, human IgG1, kappa)
# heavy: not shown
# light: B1 light
# notes: also called Ho Ab G237_18N
# B14: GpH7-B3 variant G237_19Q/GpL16-k0 (antibody, human IgG1, kappa)
# heavy: not shown
# light: B1 light
# notes: also called Ho Ab G237_19Q
# B15: GpH7-B3 variant G237_20W/GpL16-k0 (antibody, human IgG1, kappa)
# heavy: not shown
# light: B1 light
# notes: also called Ho Ab G237_20W
# B16: GpH7-B3 variant H268_03V/GpL16-k0 (antibody, human IgG1, kappa)
# heavy: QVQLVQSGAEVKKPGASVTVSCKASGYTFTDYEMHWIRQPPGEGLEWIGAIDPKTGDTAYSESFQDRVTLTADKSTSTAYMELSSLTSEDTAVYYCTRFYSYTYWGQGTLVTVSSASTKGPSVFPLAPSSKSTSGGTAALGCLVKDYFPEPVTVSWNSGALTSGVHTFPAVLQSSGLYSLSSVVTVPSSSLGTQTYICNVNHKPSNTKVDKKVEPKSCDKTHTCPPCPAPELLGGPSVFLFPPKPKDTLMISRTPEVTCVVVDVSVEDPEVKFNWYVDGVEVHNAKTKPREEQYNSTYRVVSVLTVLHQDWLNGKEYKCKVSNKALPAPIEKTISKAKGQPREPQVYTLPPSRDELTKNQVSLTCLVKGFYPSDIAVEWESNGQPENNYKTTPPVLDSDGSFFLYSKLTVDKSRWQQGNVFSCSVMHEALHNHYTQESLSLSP
# light: B1 light
# notes: also called Ho Ab H268_03V
# B17: GpH7-B3 variant H268_05P/GpL16-k0 (antibody, human IgG1, kappa)
# heavy: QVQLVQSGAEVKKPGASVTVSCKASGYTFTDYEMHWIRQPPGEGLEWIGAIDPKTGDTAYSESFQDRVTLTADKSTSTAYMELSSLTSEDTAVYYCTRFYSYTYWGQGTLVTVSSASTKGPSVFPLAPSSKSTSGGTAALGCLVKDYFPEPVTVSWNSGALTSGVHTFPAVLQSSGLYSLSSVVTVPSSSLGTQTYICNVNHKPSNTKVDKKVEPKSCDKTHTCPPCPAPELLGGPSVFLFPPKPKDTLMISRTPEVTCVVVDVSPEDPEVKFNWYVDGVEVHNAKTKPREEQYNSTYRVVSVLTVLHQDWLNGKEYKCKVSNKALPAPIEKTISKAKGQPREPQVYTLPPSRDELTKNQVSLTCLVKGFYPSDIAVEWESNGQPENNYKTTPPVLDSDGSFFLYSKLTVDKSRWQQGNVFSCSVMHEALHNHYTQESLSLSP
# light: B1 light
# notes: also called Ho Ab H268_05P
# B18: GpH7-B3 variant H268_15Y/GpL16-k0 (antibody, human IgG1, kappa)
# heavy: not shown
# light: B1 light
# notes: also called Ho Ab H268_15Y
# B19: GpH7-B3 variant I332_02A/GpL16-k0 (antibody, human IgG1, kappa)
# heavy: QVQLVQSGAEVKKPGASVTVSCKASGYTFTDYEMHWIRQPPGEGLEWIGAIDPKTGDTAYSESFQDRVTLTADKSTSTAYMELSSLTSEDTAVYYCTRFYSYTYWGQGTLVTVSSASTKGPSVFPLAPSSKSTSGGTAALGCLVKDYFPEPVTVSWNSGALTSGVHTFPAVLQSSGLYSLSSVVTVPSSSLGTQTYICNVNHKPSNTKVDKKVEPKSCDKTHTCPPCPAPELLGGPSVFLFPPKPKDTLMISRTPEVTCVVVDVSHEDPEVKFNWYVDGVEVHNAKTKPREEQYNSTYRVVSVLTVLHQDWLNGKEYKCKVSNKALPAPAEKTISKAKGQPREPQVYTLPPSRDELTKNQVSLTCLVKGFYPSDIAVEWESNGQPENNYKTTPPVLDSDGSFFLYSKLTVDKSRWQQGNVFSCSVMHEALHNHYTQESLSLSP
# light: B1 light
# notes: also called Ho Ab I332_02A
# B20: GpH7-B3 variant I332_14T/GpL16-k0 (antibody, human IgG1, kappa)
# heavy: not shown
# light: B1 light
# notes: also called Ho Ab I332_14T
# B21: GpH7-B3 variant I336_06M/GpL16-k0 (antibody, human IgG1, kappa)
# heavy: not shown
# light: B1 light
# notes: also called Ho Ab I336_06M
# B22: GpH7-B3 variant I336_08L/GpL16-k0 (antibody, human IgG1, kappa)
# heavy: not shown
# light: B1 light
# notes: also called Ho Ab I336_08L
# B23: GpH7-B3 variant K326_07I/GpL16-k0 (antibody, human IgG1, kappa)
# heavy: not shown
# light: B1 light
# notes: also called Ho Ab K326_07I
# B24: GpH7-B3 variant K326_08L/GpL16-k0 (antibody, human IgG1, kappa)
# heavy: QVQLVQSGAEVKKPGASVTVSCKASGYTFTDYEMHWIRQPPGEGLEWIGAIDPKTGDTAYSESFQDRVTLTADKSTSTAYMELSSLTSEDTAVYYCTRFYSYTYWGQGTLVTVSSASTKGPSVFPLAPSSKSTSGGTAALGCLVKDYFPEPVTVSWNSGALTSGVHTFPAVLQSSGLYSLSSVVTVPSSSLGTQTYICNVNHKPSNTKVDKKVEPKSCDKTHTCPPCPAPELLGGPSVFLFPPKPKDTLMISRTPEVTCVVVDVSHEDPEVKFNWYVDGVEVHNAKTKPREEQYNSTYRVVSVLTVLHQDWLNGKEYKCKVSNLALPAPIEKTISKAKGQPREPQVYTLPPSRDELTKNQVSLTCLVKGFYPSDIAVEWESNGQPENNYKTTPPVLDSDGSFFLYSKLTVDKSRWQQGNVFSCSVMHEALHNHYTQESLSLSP
# light: B1 light
# notes: also called Ho Ab K326_08L
# B25: GpH7-B3 variant N325_09D/GpL16-k0 (antibody, human IgG1, kappa)
# heavy: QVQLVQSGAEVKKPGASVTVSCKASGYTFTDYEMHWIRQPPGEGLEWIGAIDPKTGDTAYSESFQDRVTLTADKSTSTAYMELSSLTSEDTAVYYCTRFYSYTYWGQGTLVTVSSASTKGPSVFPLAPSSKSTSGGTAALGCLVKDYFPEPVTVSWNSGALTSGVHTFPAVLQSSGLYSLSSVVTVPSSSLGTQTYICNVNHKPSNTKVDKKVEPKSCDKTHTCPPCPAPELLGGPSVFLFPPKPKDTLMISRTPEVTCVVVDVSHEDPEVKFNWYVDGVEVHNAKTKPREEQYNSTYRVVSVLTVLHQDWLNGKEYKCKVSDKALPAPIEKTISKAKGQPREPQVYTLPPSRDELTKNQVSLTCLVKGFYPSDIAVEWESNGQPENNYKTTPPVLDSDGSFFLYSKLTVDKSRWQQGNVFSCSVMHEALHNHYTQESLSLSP
# light: B1 light
# notes: also called Ho Ab N325_09D
# B26: GpH7-B3 variant N325_10E/GpL16-k0 (antibody, human IgG1, kappa)
# heavy: not shown
# light: B1 light
# notes: also called Ho Ab N325_10E
# B27: GpH7-B3 variant N325_13S/GpL16-k0 (antibody, human IgG1, kappa)
# heavy: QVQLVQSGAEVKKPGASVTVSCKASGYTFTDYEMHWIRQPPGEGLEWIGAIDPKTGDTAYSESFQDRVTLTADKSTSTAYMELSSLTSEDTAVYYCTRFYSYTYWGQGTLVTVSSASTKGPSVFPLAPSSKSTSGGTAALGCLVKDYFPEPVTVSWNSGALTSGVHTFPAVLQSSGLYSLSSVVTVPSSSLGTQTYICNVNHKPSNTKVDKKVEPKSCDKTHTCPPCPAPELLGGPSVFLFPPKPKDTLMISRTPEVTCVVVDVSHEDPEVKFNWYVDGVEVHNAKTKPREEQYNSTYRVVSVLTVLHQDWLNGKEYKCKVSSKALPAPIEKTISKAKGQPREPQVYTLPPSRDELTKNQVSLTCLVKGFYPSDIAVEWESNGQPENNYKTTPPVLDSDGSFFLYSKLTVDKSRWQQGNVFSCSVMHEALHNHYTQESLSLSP
# light: B1 light
# notes: also called Ho Ab N325_13S
# B28: GpH7-B3 variant N325_14T/GpL16-k0 (antibody, human IgG1, kappa)
# heavy: not shown
# light: B1 light
# notes: also called Ho Ab N325_14T
# B29: GpH7-B3 variant N325_15Y/GpL16-k0 (antibody, human IgG1, kappa)
# heavy: not shown
# light: B1 light
# notes: also called Ho Ab N325_15Y
# B30: GpH7-B3 variant N325_20W/GpL16-k0 (antibody, human IgG1, kappa)
# heavy: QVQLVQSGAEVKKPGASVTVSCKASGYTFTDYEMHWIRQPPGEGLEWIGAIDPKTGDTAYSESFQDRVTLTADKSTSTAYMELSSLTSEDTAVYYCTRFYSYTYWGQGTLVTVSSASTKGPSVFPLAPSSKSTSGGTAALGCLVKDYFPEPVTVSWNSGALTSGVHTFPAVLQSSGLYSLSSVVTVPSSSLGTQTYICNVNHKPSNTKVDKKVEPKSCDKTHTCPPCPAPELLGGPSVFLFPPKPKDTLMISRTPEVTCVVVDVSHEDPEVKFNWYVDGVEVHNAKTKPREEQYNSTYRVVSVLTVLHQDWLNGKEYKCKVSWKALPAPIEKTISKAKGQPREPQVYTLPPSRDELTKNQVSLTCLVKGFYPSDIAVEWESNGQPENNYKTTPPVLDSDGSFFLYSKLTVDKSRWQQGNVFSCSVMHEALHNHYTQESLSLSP
# light: B1 light
# notes: also called Ho Ab N325_20W
# B31: GpH7-B3 variant P238_03V/GpL16-k0 (antibody, human IgG1, kappa)
# heavy: not shown
# light: B1 light
# notes: also called Ho Ab P238_03V
# B32: GpH7-B3 variant P238_04F/GpL16-k0 (antibody, human IgG1, kappa)
# heavy: not shown
# light: B1 light
# notes: also called Ho Ab P238_04F
# B33: GpH7-B3 variant P238_06M/GpL16-k0 (antibody, human IgG1, kappa)
# heavy: not shown
# light: B1 light
# notes: also called Ho Ab P238_06M
# B34: GpH7-B3 variant P238_09D/GpL16-k0 (antibody, human IgG1, kappa)
# heavy: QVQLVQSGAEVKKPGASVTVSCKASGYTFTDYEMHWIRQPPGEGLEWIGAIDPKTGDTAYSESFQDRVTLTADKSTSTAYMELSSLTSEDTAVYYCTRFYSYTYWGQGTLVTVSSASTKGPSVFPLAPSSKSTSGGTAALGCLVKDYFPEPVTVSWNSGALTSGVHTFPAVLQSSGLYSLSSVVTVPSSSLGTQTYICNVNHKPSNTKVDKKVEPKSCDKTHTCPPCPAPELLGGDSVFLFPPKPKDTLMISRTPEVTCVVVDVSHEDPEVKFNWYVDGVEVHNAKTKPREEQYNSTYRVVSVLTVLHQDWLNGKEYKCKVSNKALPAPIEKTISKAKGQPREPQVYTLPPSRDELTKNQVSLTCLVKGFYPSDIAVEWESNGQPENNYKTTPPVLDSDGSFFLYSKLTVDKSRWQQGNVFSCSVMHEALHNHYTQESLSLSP
# light: B1 light
# notes: also called Ho Ab P238_09D
# B35: GpH7-B3 variant P271_08L/GpL16-k0 (antibody, human IgG1, kappa)
# heavy: not shown
# light: B1 light
# notes: also called Ho Ab P271_08L
# B36: GpH7-B3 variant P331_02A/GpL16-k0 (antibody, human IgG1, kappa)
# heavy: not shown
# light: B1 light
# notes: also called Ho Ab P331_02A
# B37: GpH7-B3 variant P331_04F/GpL16-k0 (antibody, human IgG1, kappa)
# heavy: not shown
# light: B1 light
# notes: also called Ho Ab P331_04F
# B38: GpH7-B3 variant P331_15Y/GpL16-k0 (antibody, human IgG1, kappa)
# heavy: not shown
# light: B1 light
# notes: also called Ho Ab P331_15Y
# B39: GpH7-B3 variant P331_16H/GpL16-k0 (antibody, human IgG1, kappa)
# heavy: not shown
# light: B1 light
# notes: also called Ho Ab P331_16H
# B40: GpH7-B3 variant P331_20W/GpL16-k0 (antibody, human IgG1, kappa)
# heavy: not shown
# light: B1 light
# notes: also called Ho Ab P331_20W
# B41: GpH7-B3 variant S239_08L/GpL16-k0 (antibody, human IgG1, kappa)
# heavy: not shown
# light: B1 light
# notes: also called Ho Ab S239_08L
# B42: GpH7-B3 variant S239_10E/GpL16-k0 (antibody, human IgG1, kappa)
# heavy: not shown
# light: B1 light
# notes: also called Ho Ab S239_10E
# B43: GpH7-B3 variant S239_18N/GpL16-k0 (antibody, human IgG1, kappa)
# heavy: not shown
# light: B1 light
# notes: also called Ho Ab S239_18N
# B44: GpH7-B3 variant S267_03V/GpL16-k0 (antibody, human IgG1, kappa)
# heavy: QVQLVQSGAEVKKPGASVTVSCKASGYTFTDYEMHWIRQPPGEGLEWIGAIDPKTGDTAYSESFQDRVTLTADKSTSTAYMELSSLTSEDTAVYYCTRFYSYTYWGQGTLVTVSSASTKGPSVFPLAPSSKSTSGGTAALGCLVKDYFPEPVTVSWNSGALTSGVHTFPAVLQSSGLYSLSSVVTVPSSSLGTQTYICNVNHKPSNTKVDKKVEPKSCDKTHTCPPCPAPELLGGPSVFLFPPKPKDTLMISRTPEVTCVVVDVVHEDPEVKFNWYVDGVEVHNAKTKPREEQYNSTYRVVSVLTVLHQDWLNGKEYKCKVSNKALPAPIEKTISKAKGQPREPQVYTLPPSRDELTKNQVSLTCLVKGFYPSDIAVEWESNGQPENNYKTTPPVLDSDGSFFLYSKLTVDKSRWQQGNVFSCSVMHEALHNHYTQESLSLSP
# light: B1 light
# notes: also called Ho Ab S267_03V
# Biological target: T1, FcγRIIb (human, UniProt P31994 43-217)
# T1 construct: extracellular domain; also called 2b; FcgRIIb
# T1 sequence (looked up): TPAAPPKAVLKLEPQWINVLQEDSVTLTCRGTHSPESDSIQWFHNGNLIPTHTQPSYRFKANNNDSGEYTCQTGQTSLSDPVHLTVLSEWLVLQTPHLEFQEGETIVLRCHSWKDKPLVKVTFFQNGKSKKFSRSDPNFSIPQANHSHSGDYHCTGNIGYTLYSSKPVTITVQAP
# Test: SPR (Biacore), binding relative to GpH7-B3/GpL16-k0 = 100
# Description: Analysis of interaction between objective antibody and the FcγR was carried out using Biacore T100 (GE Healthcare). HBS-EP+ (GE Healthcare) was used as the running buffer, and the measurement temperature was set to 25° C. Chips produced by immobilizing the antigen peptide by the amine coupling method to a Series S Sencor Chip CM5 (GE Healthcare), or alternatively, chips produced by allowing preliminarily biotinylated antigen peptides to interact with and immobilize onto a Series S Sensor Chip SA (certified) (GE Healthcare) were used. Antibodies of interest were captured onto an antigen peptide-immobilized chip, and allowed to interact to each FcγR diluted with running buffer. To regenerate and repeatedly use the chip, the antibodies captured on the chip were washed off by reacting 10 mM glycine-HCl, pH 1.5.
# The FcγR-binding activity of each antibody was assessed primarily using as an indicator the FcγR-binding activity and dissociation constant for FcγR.
row,Binder,Ho/Con_2b
1,B1,47.8 % of control
2,B2,37.6 % of control
3,B3,101 % of control
4,B4,102 % of control
5,B5,35.3 % of control
6,B6,140 % of control
7,B7,35.3 % of control
8,B8,49.4 % of control
9,B9,92.9 % of control
10,B10,17.8 % of control
11,B11,25.7 % of control
12,B12,83.1 % of control
13,B13,63.9 % of control
14,B14,5.3 % of control
15,B15,166 % of control
16,B16,109 % of control
17,B17,109 % of control
18,B18,104 % of control
19,B19,81.8 % of control
20,B20,106 % of control
21,B21,90.1 % of control
22,B22,103 % of control
23,B23,170 % of control
24,B24,168 % of control

# Biological target: T2, FcγRIIa R (human, UniProt P12318 34-217)
# T2 construct: extracellular domain; also called FcgRIIa R type; 2aR
# T2 sequence (looked up): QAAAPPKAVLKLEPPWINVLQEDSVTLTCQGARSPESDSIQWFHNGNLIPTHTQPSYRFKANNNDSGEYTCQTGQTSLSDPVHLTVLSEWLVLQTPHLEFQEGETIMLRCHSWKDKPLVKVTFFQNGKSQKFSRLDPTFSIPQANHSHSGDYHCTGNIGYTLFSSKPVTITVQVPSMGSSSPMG
# Test: SPR Biacore; vs GpH7-B3/GpL16-k0 =100
row,Binder,Ho/Con_2aR
1,B25,74.8 % of control
2,B26,49.9 % of control
3,B27,126 % of control
4,B28,60.2 % of control
5,B29,42.6 % of control
6,B30,56 % of control
7,B31,116 % of control
8,B32,146 % of control
9,B33,88.9 % of control
10,B34,13 % of control
11,B35,102 % of control
12,B36,102 % of control
13,B37,106 % of control
14,B38,105 % of control
15,B39,100 % of control
16,B40,102 % of control
17,B41,106 % of control
18,B42,122 % of control
19,B43,103 % of control
20,B44,115 % of control
